Experimental data from patent publication US20250340640A1.

Target: recombinant protein TCRVB 6-5 (human)
Experiment: SPR, compared with BJM0277

Chain of recombinant protein TCRVB 6-5 (human) (TCR beta, as listed by the source): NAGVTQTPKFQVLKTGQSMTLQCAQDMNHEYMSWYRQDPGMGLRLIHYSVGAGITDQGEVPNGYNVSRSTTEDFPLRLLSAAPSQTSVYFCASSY

B1: A-H.45 (bispecific antibody, part only; not given: anti-CD19 arm, constant regions, linkers, not shown: another chain or arm of the molecule; a dimerising Fc or GST; small tags and cut ends)
scFv: QVQLVQSGAEVKKPGSSVKVSCKASGYSFTTYYIHWVRQAPGQGLEWMGWFSAGSGNTKYNEKFKGRVTITADTSTSTAYMELSSLRSEDTAVYYCAVSYYSYDVLDYWGQGTTVTVSSGGGGSGGGGSGGGGSGGGGSDIQMTQSPSFLSASVGDRVTITCKASQNVGINVVWHQQKPGKAPKALIYSSSHRYSGVPSRFSGSGSGTEFTLTISSLQPEDFATYFCQQFKSYPLTFGQGTKLEIK
**Q.** For B1, which fold greater affinity than BJM0277 is on record?
**A.** 35 fold
